Measurements reported in patent publication US11261437B2, “Procoagulant compounds” (Bioverativ Therapeutics Inc., priority 2012, dated 2022).
*1 amine or outer side, *2 acyl side, *3 side chain or, on linkers, in order; H or OH if unused. Bridges are numbered along the chain shown (N, C = ends). Where no end group is shown, it is not given here. [ ]: non-standard residue; d: D form. The star is where a group is joined. PABC = O=C(OCc1ccc(N[*:1])cc1)[*:2]; Pip = O=C(O)[C@@H]1CCCCN1; Acm = CC(=O)NC*

Key:
Type in all cases: biochemical
thrombin [1] = target: T1, thrombin (Homo sapiens, UniProt P00734); assay: Thrombin cleavage of Compounds 1, 4, 5 and 6 by 1.4 nM thrombin (HPLC); details: thrombin 1.4 nM, peptide 50 μM, PBS, 37° C.
Protocol: FIG. 9 depicts the cleavage of Compounds 1, 4, 5 and 6 by 1.4 nM thrombin. Compounds 1, 4 and 5 incorporate PABC and different thrombin-cleavable substrates.
50 μL of peptide (1 mM) in water was added to 900 μL PBS. The mixture was incubated at 37° C. for 30 min, followed by 50 μL of thrombin (27.8 nM, 1 μg/mL), giving the following approximate initial concentrations: thrombin=1.4 nM, peptide=50 μM. The mixture was incubated at 37° C. Aliquots (95 μL) at various time points were quenched with 5 μL of hirudin (2 μM) and injected into the HPLC (C-18 column, CH3CN/H2O, 0 to 70% over 12 minutes, 60° C. 0.5 mL/min, ? =280 nm). The decreases of peptide peak areas were used to calculate yield.

thrombin [2] = target: T1, thrombin; assay: Thrombin cleavage of Compound 7 (HPLC); details: 1.4 nm thrombin, peptide 10 μM, PBS, 37° C., after 30 minutes
Protocol: FIG. 5 depicts the cleavage of Compound 7 by thrombin. Upon cleavage with 1.4 nM thrombin in PBS, the clean synthetic procoagulant peptide is released, as well as the portion of the molecule comprising the thrombin substrate, the GGGG linker, and the N-terminal cysteine. To conduct the reaction, 21 μL of peptide (0.24 mM) in water was added to 476.5 μL PBS. The mixture was incubated at 37° C. for 30 min, followed by 2.5 μL of thrombin (278 nM, 10 μg/mL), giving the following approximate initial concentrations: thrombin=1.4 nM, peptide=10 μM. The mixture was incubated at 37° C. Aliquots (60 μL) at various time points were quenched with 1 μL of hirudin (10 μM) and injected into the HPLC (C-18 column, CH3CN/H2O, 0 to 70% over 12 minutes, 60° C. 0.5 mL/min, ? =280 nm). Compound 7 was cleaved rapidly by 1.4 nm thrombin. Approximately 90% of Compound 7 was cleaved after 30 minutes.

plasma (TGA assay) = assay: Cleavage of Compound 7 during the TGA assay (HPLC of plasma); details: plasma at the end of TGA assay
Protocol: Plasma at the end of TGA assay for Compound 7 was transferred into cold CH3CN (1 mL) and centrifuged at 13 k rpm for 10 min. Supernatant (1.1 mL) was transferred to a new vial and dried by speedvac. The resulting solid was reconstituted with 30 μL of H2O and injected into the HPLC for analysis.

Substance | Thrombin-mediated release of peptide IVGGQE (thrombin [1]) | Compound cleaved by thrombin (thrombin [2]) | Cleavage during the course of a TGA assay (plasma (TGA assay))
Ala-Leu-Val-Pro-Arg-Ile-Val-Gly-Gly-Gln-Glu-NH2 (ALVPRIVGGQE-NH2) [Compound 6] | not observed | – | –
Cys(Acm)-Gly-Gly-Gly-Gly-Dphe-Pip-Arg-PABC-rRAPGKLTCLASYCWLFWTGIA-NH2 (disulfide) (C(Acm)GGGG[dF][Pip]R[PABC][dR]RAPGKLTCLASYCWLFWTGIA-NH2; disulfide 18-23 (inferred)) [Compound 7] | – | Approximately 90% | cleaved completely
